3 molecules from PMC2851732 (2010) can be followed below.

Where two headings read alike, the source gives them in different places. Ends that are not written are not given here. * marks the point of attachment. FITC = O=C1OC2(c3ccc(O)cc3Oc3cc(O)ccc32)c2ccc(NC(=S)*)cc21; βAla = NCCC(=O)O

Test [1] has as its target T1, DV2 sE(1–395), postfusion trimer (dengue virus type 2, UniProt P12823). The test is described as follows: FP.
In test [2] the target is T1, DV2 sE(1–395), postfusion trimer. The test is described as follows: FP. This is another data set of the same source.

Take {FITC-βAla}-AWDFGSLGGVFTSIGKALHQVFGAIYGAA [FITC-conjugated stem peptide DV2^419–447]: the Kd (in general, the constant that tells how readily two partners part at equilibrium) in test [1] is 125 nM.

In the case of {FITC-βAla}-AWDFGSLGGVFTSIGKALHQVF [FITC-conjugated stem peptide DV2^419–440], the Kd in test [1] turned out to be 250 nM.

In test [2], AILGDTAWDFGSLGGVFTSIGKALHQVFGAIYGAA [stem peptide DV2^413–447] displayed a Kd of 275 nM. This lies in the sub-micromolar range.
